{
  "source": "IntAct's records for PubMed 29892012",
  "parents": {"B1": {"name": "Keratin, type I cuticular Ha8 (Homo sapiens), O76015 (parent)", "chain": "MTSSYSSSSCPLGCTMAPGARNVSVSPIDIGCQPGAEANIAPMCLLANVAHANRVRVGSTPLGRPSLCLPPTCHTACPLPGTCHIPGNIGICGAYGENTLNGHEKETMQFLNDRLANYLEKVRQLEQENAELEATLLERSKCHESTVCPDYQSYFHTIEELQQKILCSKAENARLIVQIDNAKLAADDFRIKLESERSLRQLVEADKCGTQKLLDDATLAKADLEAQQESLKEEQLSLKSNHEQEVKILRSQLGEKLRIELDIEPTIDLNRVLGEMRAQYEAMLETNRQDVEQWFQAQSEGISLQDMSCSEELQCCQSEILELRCTVNALEVERQAQHTLKDCLQNSLCEAEDRFGTELAQMQSLISNVEEQLSEIRADLERQNQEYQVLLDVKTRLENEIATYRNLLESEDCKLPCNPCSTSPSCVTAPCAPRPSCGPCTTCGPTCGASTTGSRF", "partner": "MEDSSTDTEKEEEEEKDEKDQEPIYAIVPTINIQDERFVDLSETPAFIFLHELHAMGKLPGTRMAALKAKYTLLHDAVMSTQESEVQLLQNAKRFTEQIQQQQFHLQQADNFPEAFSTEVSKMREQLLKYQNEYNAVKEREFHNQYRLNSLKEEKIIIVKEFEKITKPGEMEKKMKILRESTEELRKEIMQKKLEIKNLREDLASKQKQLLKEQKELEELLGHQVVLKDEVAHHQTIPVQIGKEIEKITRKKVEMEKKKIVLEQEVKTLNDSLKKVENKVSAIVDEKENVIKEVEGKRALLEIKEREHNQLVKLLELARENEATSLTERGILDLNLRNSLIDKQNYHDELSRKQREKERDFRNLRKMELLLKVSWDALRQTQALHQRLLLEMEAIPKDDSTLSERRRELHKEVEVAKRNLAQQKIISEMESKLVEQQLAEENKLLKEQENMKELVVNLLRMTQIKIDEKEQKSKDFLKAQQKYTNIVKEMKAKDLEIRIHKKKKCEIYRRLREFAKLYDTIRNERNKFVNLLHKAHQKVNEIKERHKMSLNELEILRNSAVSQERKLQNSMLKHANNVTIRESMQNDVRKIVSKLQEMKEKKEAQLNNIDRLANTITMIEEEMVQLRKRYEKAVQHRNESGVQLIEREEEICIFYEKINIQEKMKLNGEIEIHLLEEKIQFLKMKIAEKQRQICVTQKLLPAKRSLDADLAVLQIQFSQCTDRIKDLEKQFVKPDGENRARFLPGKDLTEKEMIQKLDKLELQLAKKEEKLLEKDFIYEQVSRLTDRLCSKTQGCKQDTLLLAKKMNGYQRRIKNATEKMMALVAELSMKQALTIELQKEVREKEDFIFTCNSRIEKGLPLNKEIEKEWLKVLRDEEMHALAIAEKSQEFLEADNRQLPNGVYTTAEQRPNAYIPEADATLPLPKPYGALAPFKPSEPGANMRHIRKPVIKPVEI"}, "B2": {"name": "F-box/LRR-repeat protein 12 (Homo sapiens), Q9NXK8 (parent)", "chain": "MATLVELPDSVLLEIFSYLPVRDRIRISRVCHRWKRLVDDRWLWRHVDLTLYTMRPKVMWHLLRRYMASRLHSLRMGGYLFSGSQAPQLSPALLRALGQKCPNLKRLCLHVADLSMVPITSLPSTLRTLELHSCEISMAWLHKQQDPTVLPLLECIVLDRVPAFRDEHLQGLTRFRALRSLVLGGTYRVTETGLDAGLQELSYLQRLEVLGCTLSADSTLLAISRHLRDVRKIRLTVRGLSAPGLAVLEGMPALESLCLQGPLVTPEMPSPTEILSSCLTMPKLRVLELQGLGWEGQEAEKILCKGLPHCMVIVRACPKESMDWWM", "partner": "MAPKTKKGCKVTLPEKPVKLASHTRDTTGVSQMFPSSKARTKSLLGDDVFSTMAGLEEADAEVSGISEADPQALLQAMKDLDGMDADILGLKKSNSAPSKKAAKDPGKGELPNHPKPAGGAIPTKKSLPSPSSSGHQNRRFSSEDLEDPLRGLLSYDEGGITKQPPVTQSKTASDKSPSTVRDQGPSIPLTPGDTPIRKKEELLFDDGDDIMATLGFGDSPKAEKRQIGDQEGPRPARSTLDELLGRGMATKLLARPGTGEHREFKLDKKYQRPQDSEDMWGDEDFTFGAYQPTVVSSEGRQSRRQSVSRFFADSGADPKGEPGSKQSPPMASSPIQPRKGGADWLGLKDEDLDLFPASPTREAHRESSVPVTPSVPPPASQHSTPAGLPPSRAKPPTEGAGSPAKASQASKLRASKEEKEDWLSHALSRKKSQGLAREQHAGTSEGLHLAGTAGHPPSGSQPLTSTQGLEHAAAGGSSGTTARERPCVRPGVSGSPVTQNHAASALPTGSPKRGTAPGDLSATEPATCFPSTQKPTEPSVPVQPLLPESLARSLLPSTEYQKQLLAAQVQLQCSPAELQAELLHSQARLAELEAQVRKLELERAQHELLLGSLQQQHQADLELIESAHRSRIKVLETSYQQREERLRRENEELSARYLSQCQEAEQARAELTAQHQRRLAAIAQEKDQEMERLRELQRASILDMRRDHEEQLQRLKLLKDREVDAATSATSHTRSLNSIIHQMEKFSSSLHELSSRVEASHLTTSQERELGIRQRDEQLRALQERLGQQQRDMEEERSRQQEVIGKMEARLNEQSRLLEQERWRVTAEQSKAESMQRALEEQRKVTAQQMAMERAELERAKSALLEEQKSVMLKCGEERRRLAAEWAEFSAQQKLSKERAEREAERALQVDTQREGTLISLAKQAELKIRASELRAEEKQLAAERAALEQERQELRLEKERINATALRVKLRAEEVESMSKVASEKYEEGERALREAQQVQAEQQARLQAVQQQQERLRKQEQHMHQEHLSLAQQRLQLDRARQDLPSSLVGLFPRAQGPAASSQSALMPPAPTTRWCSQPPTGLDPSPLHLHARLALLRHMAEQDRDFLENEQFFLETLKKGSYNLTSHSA"}, "B3": {"name": "FAST kinase domain-containing protein 5, mitochondrial (Homo sapiens), Q7L8L6 (parent)", "chain": "MAATLKSLKLVRYRAFCSPSAFGAVRSVSYWNVSSTQHGGQDPPEHISLCHSAKKVKNICSTFSSRRILTTSSAHPGLEFSKTSSSKASTLQLGSPRATGVDEEDVEVFDSFENMRVFLQLRPEYRVHSYNASETSQLLSVSEGELILHKVRVNQNNLQAQVIVDYLCKLSSLPAEQHPVLLGSTSFALLCQLSVKKIQLFDTQDLINVLKAFVILGIPHSHSMLDVYETKCCHQVWEMNMDQLLLVADLWRYLGRKVPRFLNIFSSYLNLHWKDLSLSQLVHLIYVIGENRQVSQDLMQKLESLILKYIDLINLEEVGTICLGFFKSSTNLSEFVMRKIGDLACANIQHLSSRSLVNIVKMFRFTHVDHINFMKQIGEIAPQRIPSLGVQGVMHLTLYCSALRFLNEGVMNAVAASLPPRVAHCRSKDVAKILWSFGTLNYKPPNAEEFYSSLISEIHRKMPEFNQYPEHLPTCLLGLAFLEYFPVELIDFALSPGFVRLAQERTKFDLLKELYTLDGTVGIECPDYRGNRLSTHLQQEGSELLWYLAEKDMNSKPEFLETVFLLETMLGGPQYVKHHMILPHTRSSDLEVQLDVNLKPLPFNREATPAENVAKLRLEHVGVSLTDDLMNKLLKGKARGHFQGKTESEPGQQPMELENKAAVPLGGFLCNVADKSGAMEMAGLCPAACMQTPRMKLAVQFTNRNQYCYGSRDLLGLHNMKRRQLARLGYRVVELSYWEWLPLLKRTRLEKLAFLHEKVFTSAL", "partner": "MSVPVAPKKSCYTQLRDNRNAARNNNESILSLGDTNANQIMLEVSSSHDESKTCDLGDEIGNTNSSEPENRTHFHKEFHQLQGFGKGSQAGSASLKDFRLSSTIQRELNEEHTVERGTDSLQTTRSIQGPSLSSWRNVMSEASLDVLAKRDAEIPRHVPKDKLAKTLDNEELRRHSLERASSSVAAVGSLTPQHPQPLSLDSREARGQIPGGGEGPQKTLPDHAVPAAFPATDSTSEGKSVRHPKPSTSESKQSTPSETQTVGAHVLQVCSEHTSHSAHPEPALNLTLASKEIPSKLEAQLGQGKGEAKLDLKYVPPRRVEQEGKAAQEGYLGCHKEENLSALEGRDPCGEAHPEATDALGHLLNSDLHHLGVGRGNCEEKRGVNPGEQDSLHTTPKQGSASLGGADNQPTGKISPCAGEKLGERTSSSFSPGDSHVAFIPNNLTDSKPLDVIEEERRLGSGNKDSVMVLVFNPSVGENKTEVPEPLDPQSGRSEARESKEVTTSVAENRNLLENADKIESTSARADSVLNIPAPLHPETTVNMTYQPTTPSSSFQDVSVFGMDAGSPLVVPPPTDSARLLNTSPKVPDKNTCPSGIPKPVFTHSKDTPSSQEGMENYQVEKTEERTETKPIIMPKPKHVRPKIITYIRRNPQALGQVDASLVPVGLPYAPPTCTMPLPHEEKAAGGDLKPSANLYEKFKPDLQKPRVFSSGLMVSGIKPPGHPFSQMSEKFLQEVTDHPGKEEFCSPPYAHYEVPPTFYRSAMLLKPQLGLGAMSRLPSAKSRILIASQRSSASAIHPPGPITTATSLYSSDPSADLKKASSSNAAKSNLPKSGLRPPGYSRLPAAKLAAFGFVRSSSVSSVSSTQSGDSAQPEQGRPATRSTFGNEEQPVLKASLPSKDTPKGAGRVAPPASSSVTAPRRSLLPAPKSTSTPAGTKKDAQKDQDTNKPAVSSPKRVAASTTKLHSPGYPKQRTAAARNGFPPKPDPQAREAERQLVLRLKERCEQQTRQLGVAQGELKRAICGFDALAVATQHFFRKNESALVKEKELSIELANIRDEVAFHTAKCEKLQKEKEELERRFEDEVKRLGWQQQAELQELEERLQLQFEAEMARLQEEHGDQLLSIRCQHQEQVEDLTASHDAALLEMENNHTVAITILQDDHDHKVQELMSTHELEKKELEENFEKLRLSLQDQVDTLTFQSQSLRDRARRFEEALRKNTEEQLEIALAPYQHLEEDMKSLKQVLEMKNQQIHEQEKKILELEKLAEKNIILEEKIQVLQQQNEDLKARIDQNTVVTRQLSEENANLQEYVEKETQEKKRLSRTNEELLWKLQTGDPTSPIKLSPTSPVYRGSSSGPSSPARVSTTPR"}},
  "data": [
    {"variants_of": "B1", "settings": "with cc146_human CCDC146, Q8IYE0", "values": [
      {"variant": "D306A", "effect of a mutation on the interaction": "with no effect"}
    ]},
    {"variants_of": "B2", "settings": "with fbf1_human FBF1, Q8TES7", "values": [
      {"variant": "I313V", "effect of a mutation on the interaction": "with no effect"}
    ]},
    {"variants_of": "B3", "settings": "with mtus2_human MTUS2, Q5JR59", "values": [
      {"variant": "E483D", "effect of a mutation on the interaction": "with no effect"}
    ]}
  ]
}
